The target in assay [1] is T1, AR (Homo sapiens, UniProt P10275).
T1 sequence (P10275 1-920): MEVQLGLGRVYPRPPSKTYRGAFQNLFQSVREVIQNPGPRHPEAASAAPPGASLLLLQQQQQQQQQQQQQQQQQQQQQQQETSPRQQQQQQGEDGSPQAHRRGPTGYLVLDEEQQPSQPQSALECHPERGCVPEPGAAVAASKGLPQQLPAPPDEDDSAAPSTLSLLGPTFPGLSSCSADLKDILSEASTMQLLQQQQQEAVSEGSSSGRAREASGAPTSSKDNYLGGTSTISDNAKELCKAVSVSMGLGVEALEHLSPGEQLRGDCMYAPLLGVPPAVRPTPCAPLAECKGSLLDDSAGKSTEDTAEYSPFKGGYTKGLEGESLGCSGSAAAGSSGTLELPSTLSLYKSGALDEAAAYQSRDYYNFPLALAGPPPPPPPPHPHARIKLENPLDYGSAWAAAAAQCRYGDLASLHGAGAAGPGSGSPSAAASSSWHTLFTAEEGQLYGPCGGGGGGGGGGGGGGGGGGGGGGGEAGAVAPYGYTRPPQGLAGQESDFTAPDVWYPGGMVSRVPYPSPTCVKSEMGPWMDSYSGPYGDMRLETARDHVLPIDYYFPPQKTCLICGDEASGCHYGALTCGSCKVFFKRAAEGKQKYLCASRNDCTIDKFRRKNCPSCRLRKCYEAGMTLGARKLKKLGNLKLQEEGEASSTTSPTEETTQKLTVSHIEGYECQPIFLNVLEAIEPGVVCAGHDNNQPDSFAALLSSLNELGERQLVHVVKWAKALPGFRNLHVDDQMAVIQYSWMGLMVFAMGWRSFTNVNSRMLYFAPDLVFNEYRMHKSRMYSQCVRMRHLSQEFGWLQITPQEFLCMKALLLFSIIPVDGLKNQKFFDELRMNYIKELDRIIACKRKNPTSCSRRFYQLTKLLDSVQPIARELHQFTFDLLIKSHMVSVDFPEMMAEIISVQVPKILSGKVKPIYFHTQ
The assay can be described thus: Transrepressing activity of AR42 and AR32 in CV-1 cells (luciferase reporter, Example 5). It is filed as cell-based. The settings on record: constant amount of pSG5-AR, varying amounts of pSG5-AR42 or pSG5-AR32, after treatment with an androgen. Also noted: expressed in transfected cells; host or cells: CV-1 cells. An excerpt: (§1) A vector for the transient expression of AR42, AR32 or AR is built in the pSG5 plasmid (Stratagene). A constant amount of pSG5-AR and varying amounts of pSG5-AR42 or pSG5-AR32 are transfixed in CV-1 cells. In the control, a pSGS plasmid, which contains an irrelevant cDNA of similar length, is cotransfixed with the pSG5-AR. In addition, a reporter plasmid, which contains one or more copies of a steroid-response element or a selective androgen-response element, coupled to a luciferase reporter gene, is cotransfixed. After treatment with an androgen, an increase in the reporter gene activity is measured.
Background: In a reporter assay the amount or activity of a reporter protein is the signal.

The subject of assay [2] is MMTV promoter reporter plasmid in PC-3 cells. Description: Transactivation reporter assay: pSG5-AR42 co-transfixed with MMTV promoter reporter plasmid in PC-3 cells, treated with androgens. It is filed as cell-based, human. The settings on record: 100 ng pSG5-AR42 + 100 ng MMTV reporter plasmid, R1881, testosterone or DHT at 10^-7 M. Here is the method: 100 ng of pSG5-AR42 was co-transfixed in PC-3 together with 100 ng of a reporter plasmid, which contains the MMTV promoter. These cells were then treated with various androgens (R1881: metribolone; T: testosterone; DHT: 5α-dihydrotestosterone) with a final concentration of 10^−7 M.
A vector for the transient expression of AR42 or AR32 is built in the pSG5 plasmid (Stratagene). This vector is transfixed in CV-1 or PC-3 cells. Parallel to this, a reporter plasmid that contains one or more copies of a steroid response element or a selective androgen response element, coupled to a luciferase reporter gene, is cotransfixed. To find specific effectors of AR42 or AR32, a high-throughput screening of substance banks is to be performed. Substances that trigger the activity of the reporter gene at a concentration of 10^−6 M or less are further processed. The search for receptor antagonists is performed in the presence of 10^−9 M androgen, e.g., R1881. Substances are selected that at least divide in half the androgen induction at a concentration of 10^−6 M or less.

For assay [3], the target named is T1, AR. The assay can be described thus: Transrepressing activity: pSG5-AR and different amounts of pSG5-AR42 co-transfixed in PC-3 cells with MMTV reporter plasmid. Type of assay: cell-based. Also noted: expressed in transfected cells. The settings on record: 10 ng pSG5-AR, different amounts of pSG5-AR42, 100 ng MMTV reporter plasmid, R1881 10^-9 M. Here is the method: 10 ng of pSG5-AR and different amounts of pSG5-AR42 were co-transfixed in PC-3 cells. In addition, 100 ng of a reporter plasmid, which contains the MMTV promoter, was transfixed.
as §1

B1: AR32: androgen receptor variant according to the invention with the amino acid sequence indicated in Seq ID NO 4 (protein, listed as Homo sapiens)
chain: MILWLHSLETARDHVLPIDYYFPPQKTCLICGDEASGCHYGALTCGSCKVFFKRAAEGKQKYLCASRNDCTIDKFRRKNCPSCRLRKCYEAGMTLGARKLKKLGNLKLQEEGEASSTTSPTEETTQKLTVSHIEGYECQPIFLNVLEAIEPGVVCAGHDNNQPDSFAALLSSLNELGERQLVHVVKWAKALPGFRNLHVDDQMAVIQYSWMGLMVFAMGWRSFTNVNSRMLYFAPDLVFNEYRMHKSRMYSQCVRMRHLSQEFGWLQITPQEFLCMKALLLFSINCERAASVHF
Regarding B1, the “transrepressing activity (reporter gene activity of stimulated AR)” value in the assay with AR [1] was “inhibit these transactivating effects of stimulated AR”.

B2: AR42: androgen receptor variant according to the invention with the amino acid sequence indicated in Seq ID NO 2 (protein, listed as Homo sapiens)
chain: MILWLHSLETARDHVLPIDYYFPPQKTCLICGDEASGCHYGALTCGSCKVFFKRAAEGKQKYLCASRNDCTIDKFRRKNCPSCRLRKCYEAGMTLGARKLKKLGNLKLQEEGEASSTTSPTEETTQKLTVSHIEGYECQPIFLNVLEAIEPGVVCAGHDNNQPDSFAALLSSLNELGERQLVHVVKWAKALPGFRNLHVDDQMAVIQYSWMGLMVFAMGWRSFTNVNSRMLYFAPDLVFNEYRMHKSRMYSQCVRMRHLSQEFGWLQITPQEFLCMKALLLFSIIPVDGLKNQKFFDELRMNYIKELDRIIACKRKNPTSCSRRFYQLTKLLDSVQPIARELHQFTFDLLIKSHMVSVDFPEMMAEIISVQVPKILSGKVKPIYFHTQ
Take B2: in assay [2], the “transactivating function (reporter gene activity)” value is “does not have any transactivating function”. Also, the “transrepressing activity (reporter gene activity of stimulated AR)” value with AR [3] is recorded as “inhibited the transactivating effects of stimulated AR”; with AR [1] it was “inhibit these transactivating effects of stimulated AR”.

For the origin of these results see patent publication US20020165381A1, “Human androgen receptor variants” (priority 2000, published 2002).
